Measurements as given in patent US20180038857A1 (published 2018).
Bridge positions count the residues as written; N and C are the ends. * marks the point of attachment. Biotin = O=C1N[C@H]2[C@H](CS[C@H]2CCCCC(=O)*)N1

Tests used:
Experiment in all cases: cell depletion on chemokine-streptavidin Sepharose column, flow cytometry for CCR1, 3 and 5-expressing cells
hCCR3 = molecular target: T1, hCCR3 (human, UniProt P51677 1-355)
T1 construct: whole, on cells
T1 sequence (looked up): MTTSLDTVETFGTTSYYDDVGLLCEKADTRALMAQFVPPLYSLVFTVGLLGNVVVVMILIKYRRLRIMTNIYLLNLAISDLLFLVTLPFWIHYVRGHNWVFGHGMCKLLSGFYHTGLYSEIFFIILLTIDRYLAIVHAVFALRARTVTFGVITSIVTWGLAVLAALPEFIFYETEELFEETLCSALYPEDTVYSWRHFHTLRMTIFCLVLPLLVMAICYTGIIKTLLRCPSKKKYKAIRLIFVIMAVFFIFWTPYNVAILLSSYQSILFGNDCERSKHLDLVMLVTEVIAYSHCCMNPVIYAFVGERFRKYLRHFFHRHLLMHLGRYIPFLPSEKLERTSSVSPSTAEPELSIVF
Method: (§1) To investigate the ability to eliminate CCR1, 3 and 5-expressing cells, in vitro tests have been performed on the biotinylated RANTES coupled matrix. Blood was collected from blood donors and passed through the column device containing biotinylated RANTES coupled matrix. Blood samples were taken before and after column passage and analyzed by flow cytometry (FACS) for the depletion of CCR1, 3 and 5-expressing cells.
(§2) Depletion tests were performed on blood from a healthy donor.

hCCR5 = molecular target: T2, hCCR5 (human, UniProt P51681 1-352)
T2 construct: whole, on cells
Method: as §1, §2

CCR1 = molecular target: T3, CCR1 (human, UniProt P32246 1-355)
T3 construct: whole, on cells; Endogenous receptor on blood cells in the RANTES depletion test
T3 sequence (looked up): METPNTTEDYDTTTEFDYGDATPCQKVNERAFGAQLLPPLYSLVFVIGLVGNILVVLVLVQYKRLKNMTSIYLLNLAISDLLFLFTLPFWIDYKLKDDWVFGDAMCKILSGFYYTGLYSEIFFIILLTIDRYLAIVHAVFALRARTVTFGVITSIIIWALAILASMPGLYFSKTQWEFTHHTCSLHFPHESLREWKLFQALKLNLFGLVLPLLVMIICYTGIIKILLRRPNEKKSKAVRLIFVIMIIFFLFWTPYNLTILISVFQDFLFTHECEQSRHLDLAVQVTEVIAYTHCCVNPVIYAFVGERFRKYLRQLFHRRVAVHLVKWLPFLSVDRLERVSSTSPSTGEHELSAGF
Method: as §1, §2

T2 sequence (P51681 whole entry): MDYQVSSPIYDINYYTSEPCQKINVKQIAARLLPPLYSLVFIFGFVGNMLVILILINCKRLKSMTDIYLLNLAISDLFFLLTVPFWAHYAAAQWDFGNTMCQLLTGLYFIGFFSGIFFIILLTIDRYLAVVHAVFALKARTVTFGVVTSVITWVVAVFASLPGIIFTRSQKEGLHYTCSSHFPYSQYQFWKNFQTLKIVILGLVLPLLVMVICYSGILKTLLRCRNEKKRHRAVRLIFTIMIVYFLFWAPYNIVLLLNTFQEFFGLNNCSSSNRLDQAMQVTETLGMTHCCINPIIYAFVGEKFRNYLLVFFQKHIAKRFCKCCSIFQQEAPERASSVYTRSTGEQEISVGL

reduction of chemokine receptor-expressing cells by the column (hCCR3): ~20% | reduction of chemokine receptor-expressing cells by the column (hCCR5): ~20% | reduction of chemokine receptor-expressing cells by the column (CCR1): ~20%
B1: biotinRANTES (CCL5): RANTES derivatised at the ε-amino side chain functionality of Lys(67) with Biotin (ligand)
chain: H-SPYSSDTTPCCFAYIARPLPRAHIKEYFYTSGKCSNPAVVFVTRKNRQVCANPEKKWVREYINSLEK(Biotin)S-OH
modifications: disulfide 10-34, 11-50; also: TFA salt
notes: It is treated here as the same molecule; also called biotinylated RANTES
